Measurements as given in paper PMC7714071, “Interaction of amyloid beta with humanin and acetylcholinesterase is modulated by ATP” (FEBS Open Bio, 2020).

Columns and labels:
[1] = test system: Aβ in H1299 cell-conditioned media; assay: ELISA, oligomer versus total Aβ in H1299 cell-conditioned media; format: cell-based, human; settings: AChE-immunodepleted H1299 media; Fig. 8B
Protocol: Aβ ELISAs were carried out according to previous protocols for determining the oligomeric and monomeric concentrations of Aβ and as we recently reported. Briefly, total Aβ (monomers + oligomers) was measured by two‐site binding ELISAs using the capture 6E10 monoclonal antibody and 4G8‐conjugated biotin as the detection antibody, which recognizes a distinct epitope, then quantitated using streptavidin‐HRP.
Using the same samples, oligomerized Aβ was measured by a single‐site ELISA in which antibodies targeting the same primary sequence epitope were used for both capture (4G8) and detection (4G8‐biotin). Only oligomers are detected with this approach since the 4G8‐biotin antibody cannot bind to the captured monomer because the epitope is blocked by the 4G8 capture antibody. […]
Conditioned media were immunodepleted (ID) according to the methods previously described and our recently published report. […] The ID media were then carefully removed and analyzed for the presence of the target protein or peptide by ELISA. The same amount of protein (3 µL of 600 µg·mL^−1 total protein) of each sample was analyzed in the experiments. […]
Both epitopes recognized by the 6E10 and 4G8 antibodies have been previously shown to be exposed in Aβ aggregates. […] Fold change relative to controls using anti‐6E10 or anti‐4G8 antibodies incubated with 300 μL of the medium not incubated with cells was calculated. […]

[2] = test system: Aβ42; settings: HN and AChE compared; cited from earlier work
Source text: Humanin has been previously reported to bind amino acid residues 17–28 of Aβ (Fig. 1). AChE is also known to bind Aβ (1–16) and the Aβ (12–28) region (Fig. 1). Since the binding sites of AChE and HN on Aβ are overlapping, we previously investigated whether HN and AChE can simultaneously bind Aβ [79].

B1: acetylcholinesterase (protein)
chain: EGREDAELLVTVRGGRLRGIRLKTPGGPVSAFLGIPFAEPPMGPRRFLPPEPKQPWSGVVDATTFQSVCYQYVDTLYPGFEGTEMWNPNRELSEDCLYLNVWTPYPRPTSPTPVLVWIYGGGFYSGASSLDVYDGRFLVQAERTVLVSMNYRVGAFGFLALPGSREAPGNVGLLDQRLALQWVQENVAAFGGDPTSVTLFGESAGAASVGMHLLSPPSRGLFHRAVLQSGAPNGPWATVGMGEARRRATQLAHLVGCPPGGTGGNDTELVACLRTRPAQVLVNHEWHVLPQESVFRFSFVPVVDGDFLSDTPEALINAGDFHGLQVLVGVVKDEGSYFLVYGAPGFSKDNESLISRAEFLAGVRVGVPQVSDLAAEAVVLHYTDWLHPEDPARLREALSDVVGDHNVVCPVAQLAGRLAAQGARVYAYVFEHRASTLSWPLWMGVPHGYEIEFIFGIPLDPSRNYTAEEKIFAQRLMRYWANFARTGDPNEPRDPKAPQWPPYTAGAQQYVSLDLRPLEVRRGLRAQACAFWNRFLPKLLSATDTLDEAERQWKAEFHRWSSYMVHWKNQFDHYSKQDRCSDL
effect of AChE ID on oligomer versus total Aβ [1]: No change | affinity for Aβ42 [2]: comparable affinities
